Measurements reported in patent US20230303690A1 (published 2023).
Blank lines part the entries; values can stand above or below the binder they belong to.

What was measured:
[1] = molecular target: human LAG3 expressed on cells (human) (UniProt P18627); assay: cell ELISA, 293T-LAG3 cells
[2] = molecular target: T1, LAG3 Protein, Human, Recombinant (His Tag) (Sino Biological Catalog No. 16498-H08H) (human, UniProt P18627 23-450); assay: ELISA, coated hLAG3-His
T1 construct: Bought protein; also called hLAG3-His; LAG3-His; not shown: His tag
T1 sequence (looked up): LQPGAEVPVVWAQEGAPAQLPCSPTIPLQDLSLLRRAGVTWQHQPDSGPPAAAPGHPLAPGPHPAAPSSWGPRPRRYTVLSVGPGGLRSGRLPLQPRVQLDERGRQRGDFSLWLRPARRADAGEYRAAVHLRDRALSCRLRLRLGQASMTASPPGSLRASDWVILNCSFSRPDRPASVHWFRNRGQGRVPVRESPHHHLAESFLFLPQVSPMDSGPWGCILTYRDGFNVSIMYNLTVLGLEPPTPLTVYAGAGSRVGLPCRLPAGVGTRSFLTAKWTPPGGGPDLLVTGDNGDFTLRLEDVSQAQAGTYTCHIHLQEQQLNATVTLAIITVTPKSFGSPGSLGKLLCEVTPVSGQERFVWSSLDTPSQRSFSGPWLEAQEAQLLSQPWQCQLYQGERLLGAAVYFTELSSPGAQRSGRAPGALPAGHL
Procedure: Plates were coated with 100 µL per well of Coating Solution, and then covered, and incubated overnight (12-18 hours) at 2-8° C. The wells were aspirated and washed 1 time with >200 µL of Wash buffer per well, inverted and tapped on absorbent paper to remove excess liquid. The plates were blocked with 200 µL per well with Blocking buffer (1×PBS+4% milk) for 1 hour at room temperature, aspirated, inverted, and tapped on absorbent paper to remove excess liquid. Standards and sample dilutions were prepared in Blocking buffer. 100 µL of standards (in duplicate) and samples were pipetted into designated wells. After incubation for 1 hour at room temperature with gentle continual shaking (~500 rpm), the wells were aspirate and washed 3 times with >200 µL of Wash buffer per well, inverted and tapped on absorbent paper to remove excess liquid.
The primary antibody solution was diluted with Blocking buffer. See Table 14 for recommended primary antibody dilution. 100 µL of the primary antibody solution was added into each well and incubated for 2 hours at room temperature with gentle continual shaking (~500 rpm). The wells were aspirated and washed 3 times with >200 µL of Wash buffer per well, inverted and tapped on absorbent paper to remove excess liquid. The working solution of secondary antibody was made with Blocking buffer by diluting the secondary antibody by 2,500 times. 100 µL of secondary antibody working solution was added into each well and incubated for 30 minutes at room temperature. The wells were aspirated and washed 5 times with >200 µL of Wash buffer per well, inverted and tapped on absorbent paper to remove excess liquid. 100 µL of TMB substrate solution (Biopanda, TMB-S-004) was added to each well and incubated for 30 minutes at room temperature. 100 µL of Stop solution (Solarbio, C1058) was added to each well. Absorbance at 450 nm was measured within 30 minutes of adding Stop solution. Results were calculated using a log-log or 4-parameter curve fit.

[3] = molecular target: T1, LAG3 Protein, Human, Recombinant (His …); assay: SPR (Biacore), sdAb captured by anti-human Fc, LAG3-His analyte
Procedure: The binding of the single domain antibodies to recombinant human LAG3 protein (rhLAG3) was examined by Biacore™ assay. […] The coating was carried out according to the manufacturer’s instructions accompanying the kit (Catalog No. BR-1008-39, GE). […] The chip surface was regenerated after each cycle with 25 mM NaOH followed by HBS-EP wash provided in the kit.

[4] = molecular target: T2, human LAG3 expressed on cells (human, UniProt P18627 23-525); assay: cell-based or functional assay
T2 sequence (looked up): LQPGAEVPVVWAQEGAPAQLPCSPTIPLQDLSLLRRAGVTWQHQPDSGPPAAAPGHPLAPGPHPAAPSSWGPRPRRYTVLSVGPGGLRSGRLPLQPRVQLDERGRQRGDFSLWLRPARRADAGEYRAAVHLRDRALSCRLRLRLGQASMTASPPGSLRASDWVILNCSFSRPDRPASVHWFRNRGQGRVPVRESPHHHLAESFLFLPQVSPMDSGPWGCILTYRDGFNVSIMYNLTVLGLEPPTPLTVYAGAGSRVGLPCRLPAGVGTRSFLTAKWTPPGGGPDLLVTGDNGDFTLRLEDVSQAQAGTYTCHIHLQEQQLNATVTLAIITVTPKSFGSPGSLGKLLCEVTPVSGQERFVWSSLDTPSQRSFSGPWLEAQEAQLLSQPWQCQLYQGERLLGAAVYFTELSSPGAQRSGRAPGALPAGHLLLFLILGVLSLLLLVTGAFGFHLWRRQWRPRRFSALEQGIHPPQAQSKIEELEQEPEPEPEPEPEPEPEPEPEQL

[5] = molecular target: T1, LAG3 Protein, Human, Recombinant (His …); assay: SPR binning on LAG3-His; competitor BMS
Procedure: (§1) The chip surface was regenerated after each cycle with 25 mM NaOH followed by HBS-EP wash provided in the kit.

[6] = molecular target: T1, LAG3 Protein, Human, Recombinant (His …); assay: SPR binning on LAG3-His; competitor 18
Procedure: as §1

[7] = molecular target: T1, LAG3 Protein, Human, Recombinant (His …); assay: SPR binning on LAG3-His; competitor 25
Procedure: as §1

[8] = molecular target: T1, LAG3 Protein, Human, Recombinant (His …); assay: SPR binning on LAG3-His; competitor 21
Procedure: as §1

[9] = molecular target: T1, LAG3 Protein, Human, Recombinant (His …); assay: SPR binning on LAG3-His; competitor 37
Procedure: as §1

[10] = molecular target: T1, LAG3 Protein, Human, Recombinant (His …); assay: SPR binning on LAG3-His; competitor 24
Procedure: as §1

[11] = molecular target: T1, LAG3 Protein, Human, Recombinant (His …); assay: SPR binning on LAG3-His; competitor 20
Procedure: as §1

[12] = molecular target: T1, LAG3 Protein, Human, Recombinant (His …); assay: SPR binning on LAG3-His; competitor 1
Procedure: as §1

[13] = molecular target: T1, LAG3 Protein, Human, Recombinant (His …); assay: SPR binning on LAG3-His; competitor 17
Procedure: as §1

[14] = molecular target: T2, human LAG3 expressed on cells; assay: cell-based or functional assay; remark: listed apart in the source
[15] = molecular target: T1, LAG3 Protein, Human, Recombinant (His …); assay: SPR binning on LAG3-His; competitor 73
Procedure: as §1

[16] = molecular target: T1, LAG3 Protein, Human, Recombinant (His …); assay: SPR binning on LAG3-His; competitor 27
Procedure: as §1

- OD450 at 0.122 nM [1]: 0.056
- OD450 at 0.366 nM [1]: 0.07
- OD450 at 1.097 nM [1]: 0.095
- OD450 at 3.292 nM [1]: 0.166
- OD450 at 9.877 nM [1]: 0.306
- OD450 at 29.63 nM [1]: 0.399
- OD450 at 88.89 nM [1]: 0.888
- OD450 at 266.67 nM [1]: 1.47
- OD450 at 0.061 nM [2]: 0.037
- OD450 at 0.1829 nM [2]: 0.039
- OD450 at 0.5487 nM [2]: 0.037
- OD450 at 1.6461 nM [2]: 0.044
- OD450 at 4.9383 nM [2]: 0.053
- OD450 at 14.815 nM [2]: 0.069
- OD450 at 44.445 nM [2]: 0.085
- OD450 at 133.335 nM [2]: 0.128
B1: sdAb No. 25-B6 (VHH)
VHH: QLQLVESGGGLVKPGGSLRLSCAASGSIESFSFMGWYRQAPGKQREWVAGFTGAASLSFSTYTDAVKGRFTISRDNAKNSVYLQMNSLRAEDTAVYYCNVDPWSQSWPGRYWGQGTTVTVSS
notes: Humanized sdAb No. 25; not shown: Fc part implied by anti-human IgG1 Fc detection

- Kd [3]: 0.000182 µM
- koff [3]: 0.000975 s⁻¹
- kon [3]: 5.35e+06 M⁻¹ s⁻¹
- EC50 for IL-2 rescue, hLAG3 Jurkat T system [4]: 0.0426 µM
- Efficacy (IL-2 production, BMS = 100%) [4]: 56.4%
- RU [5]: 27 RU
- RU [6]: -10.6 RU
- RU [7]: 9.8 RU
- RU [8]: -10.2 RU
- RU [9]: -6.9 RU
- RU [10]: -9.6 RU
- RU [11]: -117 RU
- RU [12]: -7.3 RU
- RU [13]: -12.5 RU
- IL-2, % of BMS, at 0.005080526 ug/mL [14]: 0.495%
- IL-2, % of BMS, at 0.015241579 ug/mL [14]: 3.55%
- IL-2, % of BMS, at 0.045724737 ug/mL [14]: 3.63%
- IL-2, % of BMS, at 0.137174211 ug/mL [14]: 6.64%
- IL-2, % of BMS, at 0.411522634 ug/mL [14]: 15.5%
- IL-2, % of BMS, at 1.234567901 ug/mL [14]: 19.5%
- IL-2, % of BMS, at 3.703703704 ug/mL [14]: 24.5%
- IL-2, % of BMS, at 11.11111111 ug/mL [14]: 30.6%
- IL-2, % of BMS, at 33.33333333 ug/mL [14]: 36.8%
- IL-2, % of BMS, at 100 ug/mL [14]: 41%
- RU [15]: -9.7 RU
- RU [16]: -2.2 RU
B3: sdAb No. 73 (VHH)
VHH: QVQLVESGGGLVQPGGSLKLSCTASGFTLDYYAIAWFRQAPGKEREAVSCISSSDGSTRYADSVKGRFTISRDNAKNTVYLQMNSLKPEDTAVYYCAADPYGDCRGPYDYWGQGTQVTVSS
notes: Fc not described; also called sdAb 73; not shown: Fc part implied by anti-human Fc capture

Continued, binder first:

B2: sdAb No. 1 (VHH)
VHH: QLQLVESGGGLVQAGGSLRLSCAASGFTFDDYAIGWFRQAPGKEREGVSCIRSSDGSTYYADSVKGRFTISSDNAKNTVYLQMNSLKPEDTAVYYCAKDNYSDCRGPYHYWGQGTQVTVSS
notes: the tested form was captured by anti-human Fc, its Fc is not described; also called sdAb 1; not shown: Fc part implied by anti-human Fc capture
- koff [3]: 5.05e-08 s⁻¹
- kon [3]: 4.77e+06 M⁻¹ s⁻¹
- EC50 for IL-2 rescue, hLAG3 Jurkat T system [4]: 0.0157 µM
- Efficacy (IL-2 production, BMS = 100%) [4]: 41.4%
- RU [5]: 37.4 RU
- RU [6]: -10.7 RU
- RU [7]: 30 RU
- RU [8]: -114 RU
- RU [9]: -8.4 RU
- RU [10]: -10.6 RU
- RU [11]: -14.8 RU
- RU [12]: 22 RU
- RU [13]: -6.9 RU
- IL-2, % of BMS, at 0.005080526 ug/mL [14]: 8.4%
- IL-2, % of BMS, at 0.015241579 ug/mL [14]: 8.77%
- IL-2, % of BMS, at 0.045724737 ug/mL [14]: 6.07%
- IL-2, % of BMS, at 0.137174211 ug/mL [14]: 14.2%
- IL-2, % of BMS, at 0.411522634 ug/mL [14]: 14.8%
- IL-2, % of BMS, at 1.234567901 ug/mL [14]: 30.7%
- IL-2, % of BMS, at 3.703703704 ug/mL [14]: 46.4%
- IL-2, % of BMS, at 11.11111111 ug/mL [14]: 45.7%
- IL-2, % of BMS, at 33.33333333 ug/mL [14]: 54.4%
- IL-2, % of BMS, at 100 ug/mL [14]: 51.3%
- RU [15]: -11.6 RU
- RU [16]: 4.9 RU

B4: sdAb No. 20 (VHH)
VHH: QVQLVESGGGLVQPGGSLRLSCAASGLTLDGYAVGWFRQAPGKDREGLSCISGSDGSTHYLDSVKGRFTISRDNAKSTMALQMNSLQFGDTAIYYCAARRGSCSGSWTYWGQGTQVTVSS
notes: Fc of the tested form not described; also called sdAb 20; not shown: Fc part implied by anti-human Fc capture
- Kd [3]: 0.000252 µM
- koff [3]: 0.000429 s⁻¹
- kon [3]: 1.71e+06 M⁻¹ s⁻¹
- EC50 for IL-2 rescue, hLAG3 Jurkat T system [4]: 0.0142 µM
- Efficacy (IL-2 production, BMS = 100%) [4]: 26.9%
- RU [5]: 23.3 RU
- RU [6]: -12 RU
- RU [7]: 205 RU
- RU [8]: -20.1 RU
- RU [9]: -19.3 RU
- RU [10]: -209 RU
- RU [11]: -24.2 RU
- RU [12]: -9.9 RU
- RU [13]: -7.8 RU
- IL-2, % of BMS, at 0.005080526 ug/mL [14]: 8.49%
- IL-2, % of BMS, at 0.015241579 ug/mL [14]: 9.36%
- IL-2, % of BMS, at 0.045724737 ug/mL [14]: 3.55%
- IL-2, % of BMS, at 0.137174211 ug/mL [14]: 6.06%
- IL-2, % of BMS, at 0.411522634 ug/mL [14]: 14.7%
- IL-2, % of BMS, at 1.234567901 ug/mL [14]: 20.3%
- IL-2, % of BMS, at 3.703703704 ug/mL [14]: 38%
- IL-2, % of BMS, at 11.11111111 ug/mL [14]: 33%
- IL-2, % of BMS, at 33.33333333 ug/mL [14]: 34.5%
- IL-2, % of BMS, at 100 ug/mL [14]: 35.1%
- RU [15]: -21.8 RU
- RU [16]: -16.6 RU
